Reference: the Human Domainome abundance scans (Beltran et al. 2025)

B1: Lysine-specific demethylase 5C, residues 319 to 373; numbered along this chain, P41229 (parent)
chain: AQFIESYVCRMCSRGDEDDKLLLCDGCDDNYHIFCLLPPLPEIPKGVWRCPKCVM

Variants of: B1
Test: abundance fitness (aPCA) (normalised: wild type 0, dead -1); higher = more abundant; growth selection in yeast, the domain comes from the species named
Settings: Homo sapiens

Abundance fitness: each site, then its substitutions
C12: Y -0.87
D18: H 0.324; G 0.183; S 0.028; V 0.034; L 0.052; W 0.035; P 0.176; C -0.178; F 0.157; N -0.087; R 0.087; Y -0.284; A 0.112; M 0.107; Q 0.224; T -0.065; I 0.125; E 0.042; K 0.184
C35: K -0.947; S -0.597; Q -1.03; E -0.794; P -0.638; H -0.235; R -0.41; A -0.83; I -1; F -0.556; G -0.9; N -0.842
N30: E -0.052; K 0.098; L -0.238; S -0.068; H -0.176; P -0.088; Y -0.143; F -0.077; Q 0.157; C 0.006; W -0.117; D -0.774; I 0.219; R 0.071; M -0.206; V 0.152; G 0.052
D25: E -0.246; K -0.199; A 0.158; Y -0.44; F -0.394; G -0.081; L -0.381; Q -0.218; I -0.224; M -0.419; N -0.293; R -0.058; P -0.355; T -0.016; S -0.062; C -0.274; W -0.383; V -0.009
K20: W -0.317; N -0.327; M -0.596; C -0.379; I -0.489; T 0.096; Y -0.035; R -0.136; G -0.666; F -0.16; H -0.103; V -0.253; A -0.065; L -0.087; Q -0.093; P -0.043
F34: K 0.28; N 0.095; Y 0.191; W -0.087; T 0.039; L -0.157; Q -0.053; V -0.078; D -0.149; R 0.067; G 0.046; P -0.291; A -0.162; S -0.029; E 0.021; H -0.135; M -0.165
L21: F -0.078; T -0.164; S -0.605; Q -0.353; N -0.366; Y -0.338; C -0.304; V -0.348; P -0.683; E -0.531; M -0.167; R -0.221; H -0.458; A -0.426; I -0.044; D -0.87
D28: L -0.294; R 0.225; N 0.046; V -0.527; I 0.327; S 0.148; W -0.244; E -0.102; A 0.092; P 0.259; C -0.359; T -0.494; K -0.516; M -0.411
G26: T 0.004; A 0.161; D -0.034; P -0.799; Y -0.341; I -0.21; V -0.217; W -0.375; L -0.071; S -0.159; H 0.092; Q -0.129; K 0.133; C 0.017; N -0.105; F -0.047; M -0.178
I33: R -0.381; K -0.423; L -0.496
R14: S 0.188
E17: T 0.087; Y -0.285; F -0.062; G 0.023; V 0.22; K -0.122; C 0.261; A 0.123; Q -0.064; W -0.176; I -0.052; N 0.257; H -0.245; P -0.1; D 0.078; S -0.052
G15: T 0.029; Y -0.027; M -0.142; H -0.391; R 0.035; N -0.231; C 0.167; W -0.169; A -0.037; K 0.086; F -0.008; Q -0.124; D -0.058; E 0.049; L -0.113; P 0.04; I -0.065; V -0.025; S 0.155
C24: Y -0.812
H32: W -0.881; T -0.898; C -0.677; R -0.675; Q -0.756; G -1.01; N -0.672; V -0.723; P -0.853; Y -0.972; K -0.97; I -0.859; F -0.697; M -1.02; S -0.984; E -0.945; A -0.756
D19: G 0.08; R -0.03; Y -0.335; Q -0.014; H -0.032; W -0.146; N 0.04; P -0.15; L -0.162; C 0.019; V -0.102; S -0.089; F -0.103; T 0.242; K 0.064; A 0.063; E -0.091; M -0.254; I -0.198
C27: G -0.825; M -0.507; H -0.905; L -0.842; Y -0.779; W -1.06; R -0.759; V -0.752; I -0.923; A -0.921; T -0.694; Q -0.522; N -0.806; D -0.646; S -0.823
L23: K 0.169; T 0.094; F -0.405; Q -0.073; I -0.156; D 0.084; R 0.166; E -0.078; A 0.044; H -0.302; P -0.017; S 0.148; N 0.099; G -0.086; M 0.235; W -0.224; C -0.122; Y -0.141
L22: H -0.612; G -0.912; W -0.838; S -0.474; P -0.897; R -0.169; N -0.4; V -0.163; Y -1.07; C -0.052; M 0.05; F -0.551; E -0.523; Q -0.561; A -0.243; K -0.332; D -1.1
D29: M -0.237; R 0.004; L -0.101; A 0.06; N 0.274; F -0.128; V -0.228; E 0.017; G -0.077; Y 0.036
S13: Y -0.149; E 0.419; V -0.121; K -0.196; G 0.074; T -0.035; C -0.171; N -0.212; Q -0.183; P -0.13; L 0.044; A -0.231; D -0.042; R 0.007; W -0.237; F -0.2; H -0.239; I -0.029
Y31: K -0.702; W -0.364; M -0.074; Q -0.727; F -0.163; T -0.678; R -0.641; E -0.538; S -0.93; C -0.514; D -0.776; P -0.776; A -0.476; N -0.679; I -0.261; L -0.589; V -0.113
D16: Y -0.115; E -0.072; M 0.086; S 0.104; G 0.085; W -0.351; N 0.131; C -0.115; Q -0.16; V -0.029; I 0.089; A -0.063; T -0.182; K -0.265; R -0.026; F 0.277
